The target of the assay is F protein of RSV (Long strain) (RSV (Long strain)) (UniProt P12568). Kind of assay: cell-based or functional assay.
F protein of RSV (Long strain) (RSV (Long strain)), sequence (P12568 26-574): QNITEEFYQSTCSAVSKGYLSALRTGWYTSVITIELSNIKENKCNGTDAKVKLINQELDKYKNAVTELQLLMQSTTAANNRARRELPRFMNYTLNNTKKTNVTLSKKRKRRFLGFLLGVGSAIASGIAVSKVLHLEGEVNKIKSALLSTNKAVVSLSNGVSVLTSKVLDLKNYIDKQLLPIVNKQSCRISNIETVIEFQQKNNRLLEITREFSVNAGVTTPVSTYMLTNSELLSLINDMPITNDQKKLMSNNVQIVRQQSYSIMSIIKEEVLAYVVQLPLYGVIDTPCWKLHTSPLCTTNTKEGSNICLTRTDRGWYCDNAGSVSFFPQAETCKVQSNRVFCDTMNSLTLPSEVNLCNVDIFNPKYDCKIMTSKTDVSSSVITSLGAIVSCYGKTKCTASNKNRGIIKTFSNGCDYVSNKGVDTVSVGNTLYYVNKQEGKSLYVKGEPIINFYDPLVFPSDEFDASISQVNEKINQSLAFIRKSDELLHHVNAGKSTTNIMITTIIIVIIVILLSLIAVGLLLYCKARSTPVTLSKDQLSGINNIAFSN

palivizumab F(ab')2, sequence (VH): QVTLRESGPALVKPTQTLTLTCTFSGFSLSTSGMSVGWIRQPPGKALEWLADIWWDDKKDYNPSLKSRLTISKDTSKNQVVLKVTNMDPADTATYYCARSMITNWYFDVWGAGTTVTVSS
palivizumab F(ab')2, sequence (VL): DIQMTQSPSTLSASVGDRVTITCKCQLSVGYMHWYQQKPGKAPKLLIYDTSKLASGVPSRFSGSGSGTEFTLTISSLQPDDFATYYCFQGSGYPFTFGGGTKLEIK

As for palivizumab F(ab')2, the Microneutralization IC50 came to 1.4 nM.
